CN117460833A (dated 2024)

Molecular target: 重组小鼠ROR1 IgG2-Fc融合蛋白 (R&D系统公司, 目录号9910-RO-050) (mouse, UniProt Q9Z139 30-403)
Assay: ELISA, coated mouse ROR1 IgG2-Fc, antibody dilutions, anti-human IgG Fc-HRP

Sequence of 重组小鼠ROR1 IgG2-Fc融合蛋白 (R&D系统公司, 目录号9910-RO-050) (Q9Z139 30-403 limits assumed): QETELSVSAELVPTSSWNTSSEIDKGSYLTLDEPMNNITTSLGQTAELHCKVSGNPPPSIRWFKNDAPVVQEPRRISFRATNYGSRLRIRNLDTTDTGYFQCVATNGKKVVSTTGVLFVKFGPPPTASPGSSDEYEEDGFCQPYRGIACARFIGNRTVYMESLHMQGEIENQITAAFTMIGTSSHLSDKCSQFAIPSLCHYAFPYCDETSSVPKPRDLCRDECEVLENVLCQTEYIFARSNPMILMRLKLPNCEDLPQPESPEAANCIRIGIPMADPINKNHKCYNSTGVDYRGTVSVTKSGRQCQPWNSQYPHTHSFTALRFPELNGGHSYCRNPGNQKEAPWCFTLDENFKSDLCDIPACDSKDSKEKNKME

Binder | binding result
s10 (RO6D8-s10) 抗ROR1单克隆抗体 (antibody, V domains shown) VH: QVQLVQSGAEVKKPGASVKVSCKASGYTFTNYYMHWVRQAPGQGLEWMGIINPSGGSTSYAQKFQGRVTMTRDTSTSTVYMELSSLRSEDTAVYYCARSSRSSYYLWVLDLWGQGTTVTVSS VL: AIQMTQSPSSLSASVGDRVTITCRASQGVSTEIAWYQQKPGKAPKLLIYAASSLQSGVPSRFSGSGSGTDFTLTISSLQPEDFATYYCQQFNSYPITFGQGTRLEIK | binds
jlv1011 (RO6D8-jlv1011) 抗ROR1单克隆抗体 (antibody, V domains shown) VH: QVQLVQSGAEVKKPGASVKVSCKASGYTFTSKYYHWVRQAPGQGLEWMGIINPTSGSTSYAQKFQGRVTMTRDTSTSTVYMELSSLRSEDTAVYYCARDSSRYSGWYFDLWGQGTTVTVSS VL: AIQLTQSPSSLSASVGDRVTITCRASQGVSTEIAWYQQKPGKAPKLLIYAASSLQSGVPSRFSGSGSGTDFTLTISSLQPEDFATYYCQQYYGYPIAFGQGTRLEIK | binds
